Laboratory results from US20100291114A1 (published 2010).

T1: His-tagged IgD2-D3 of human FGFR3-IIIb (human, UniProt P22607-2 143-374, limits assumed)
T1 construct: domain: IgD2-D3; also called FGFR3-IIIb-His protein; Human FGFR3 ECD IIIb; not shown: His tag
T1 sequence (looked up): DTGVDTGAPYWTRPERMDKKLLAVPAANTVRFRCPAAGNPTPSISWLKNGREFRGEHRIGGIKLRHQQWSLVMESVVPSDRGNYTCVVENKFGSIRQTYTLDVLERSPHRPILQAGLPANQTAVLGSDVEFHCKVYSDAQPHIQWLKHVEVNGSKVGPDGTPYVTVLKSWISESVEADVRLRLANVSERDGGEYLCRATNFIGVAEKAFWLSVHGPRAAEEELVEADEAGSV

T2: His-tagged IgD2-D3 of human FGFR3-IIIc (human, UniProt P22607 143-372)
T2 construct: domain: IgD2-D3; also called FGFR3-IIIC-His protein; IIIc-His protein; not shown: His tag
T2 sequence: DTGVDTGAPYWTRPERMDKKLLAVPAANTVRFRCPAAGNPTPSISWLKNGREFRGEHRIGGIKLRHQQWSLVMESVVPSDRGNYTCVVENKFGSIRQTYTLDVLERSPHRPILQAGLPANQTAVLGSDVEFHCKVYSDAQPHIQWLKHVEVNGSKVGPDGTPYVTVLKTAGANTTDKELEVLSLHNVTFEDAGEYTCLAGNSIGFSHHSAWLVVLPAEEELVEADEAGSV

T3: human FGFR3-IIIc ECD-human Fc chimeric protein (human, UniProt P22607 23-375)
T3 construct: extracellular domain; Made in CHO cells, purified on protein A; also called FGFR3-Fc chimeric protein; not shown: human Fc
T3 sequence (looked up): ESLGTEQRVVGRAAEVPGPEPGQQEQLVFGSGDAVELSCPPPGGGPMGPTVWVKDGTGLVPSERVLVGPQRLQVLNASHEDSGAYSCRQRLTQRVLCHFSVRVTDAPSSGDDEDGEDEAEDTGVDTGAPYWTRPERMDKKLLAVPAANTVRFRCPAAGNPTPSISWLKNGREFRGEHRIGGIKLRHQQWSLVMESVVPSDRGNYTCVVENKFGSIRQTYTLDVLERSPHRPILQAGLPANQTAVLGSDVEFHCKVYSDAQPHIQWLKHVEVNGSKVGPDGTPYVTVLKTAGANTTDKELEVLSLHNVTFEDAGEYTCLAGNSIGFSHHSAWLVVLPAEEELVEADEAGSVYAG


Columns and labels:
[1] = target: human FGFR3 (isoform and construct not stated) (human) (UniProt P22607); assay: Scatchard analysis, radioiodinated antibody cell binding; RT112 cells
[2] = target: human FGFR3 (isoform and construct not stated) (human) (UniProt P22607); assay: Scatchard analysis, radioiodinated antibody cell binding; OPM2 cells
[3] = target: human FGFR3 (isoform and construct not stated) (human) (UniProt P22607); assay: Scatchard analysis, radioiodinated antibody cell binding; UMUC-14 cells
[4] = target: human FGFR3 (isoform and construct not stated) (human) (UniProt P22607); assay: Scatchard analysis, radioiodinated antibody cell binding; KMS11 cells
[5] = target: human FGFR3 (isoform and construct not stated) (human) (UniProt P22607); assay: cell-based or functional assay
[6] = target: T1, His-tagged IgD2-D3 of human FGFR3-IIIb; assay: BIAcore SPR; antibody on CM5 chip, FGFR3-His protein injected
[7] = target: T2, His-tagged IgD2-D3 of human FGFR3-IIIc; assay: as above
[8] = target: T3, human FGFR3-IIIc ECD-human Fc chimeric …; assay: competition ELISA; FGFR3-IIIc-Fc captured, antibody titrated, then FGF9 and heparin; competitor FGF9
[9] = target: T2, His-tagged IgD2-D3 of human FGFR3-IIIc; assay: BIAcore SPR; R3 Ab on the chip, FGFR3-IIIc-His protein injected, 25 C
[10] = target: T3, human FGFR3-IIIc ECD-human Fc chimeric …; assay: competition ELISA; FGFR3-IIIc-Fc captured, antibody titrated, then FGF1 and heparin; competitor FGF1

| Molecule | Kd [6] [nM] | Kd [7] [nM] | increased inhibitory activity in the Ba/F3-FGFR3 viability assay (fold greater than parent clone 184.6) [5] | also measured |
| --- | --- | --- | --- | --- |
| R3Mab |  |  |  | Kd [1]: 0.16 nM; Kd [2]: 0.64 nM; Kd [3]: 0.34 nM; Kd [4]: 0.35 nM |
| anti-FGFR3 antibody clone 184.6.1 (antibody, V domains shown) VH: EVQLVESGGGLVQPGGSLRLSCAASGFTFTSTGISWVRQAPGKGLEWVGRIYPTNGSTNYADSVKGRFTISADTSKNTAYLQMNSLRAEDTAVYYCARARTYGIYDLYVDYTEYVMDYWGQGTLV VL: DIQMTQSPSSLSASVGDRVTITCRASQDVDTSLAWYQQKPGKAPKLLIYSASFLYSGVPSRFSGSGSGTDFTLTISSLQPEDFATYYCQQSTGHPQTFGQGTKVEIKR | 0.264 | 1.44 | 100 |  |
| anti-FGFR3 antibody clone 184.6 (antibody, V domains shown, The tie to the clone name is indirect) VH: EVQLVESGGGLVQPGGSLRLSCAASGFTFTSTGISWVRQAPGKGLEWVGRIYPTNGSTNYADSVKGRFTISADTSKNTAYLQMNSLRAEDTAVYYCARARTYGIYDLYVDYTEYVMDYWGQGTLV VL: DIQMTQSPSSLSASVGDRVTITCRASQDVSTAVAWYQQKPGKAPKLLIYSASFLYSGVPSRFSGSGSGTDFTLTISSLQPEDFATYYCQQSYTTPPTFGQGTKVEIKR | 38 | 110 |  |  |
| anti-FGFR3 antibody clone 184.6.1N54S (antibody, V domains shown) VH: EVQLVESGGGLVQPGGSLRLSCAASGFTFTSTGISWVRQAPGKGLEWVGRIYPTSGSTNYADSVKGRFTISADTSKNTAYLQMNSLRAEDTAVYYCARARTYGIYDLYVDYTEYVMDYWGQGTLV VL: DIQMTQSPSSLSASVGDRVTITCRASQDVDTSLAWYQQKPGKAPKLLIYSASFLYSGVPSRFSGSGSGTDFTLTISSLQPEDFATYYCQQSTGHPQTFGQGTKVEIKR |  |  |  | IC50 [8]: 1.3 nM; Kd [9]: 3.52 nM; koff [9]: 0.00032 s⁻¹; kon [9]: 91000 M⁻¹ s⁻¹; IC50 [10]: 1.7 nM |

Second part, led by results:

| Kd [6] [nM] | Kd [7] [nM] | Molecule | increased inhibitory activity in the Ba/F3-FGFR3 viability assay (fold greater than parent clone 184.6) [5] | also measured |
| --- | --- | --- | --- | --- |
| 0.12 | 2.24 | anti-FGFR3 antibody clone 184.6.62 (antibody, V domains shown) VH: EVQLVESGGGLVQPGGSLRLSCAASGFTFSTTGISWVRQAPGKGLEWVGRIYPLYGSTHYADSVKGRFTISADTSKNTAYLQMNSLRAEDTAVYYCARARTYGIYDLYVDYTEYVMDYWGQGTLV VL: DIQMTQSPSSLSASVGDRVTITCRASQDVSTAVAWYQQKPGKAPKLLIYSASFLYSGVPSRFSGSGSGTDFTLTISSLQPEDFATYYCQQTYTTSLTFGQGTKVEIKR | 100 |  |
| 0.19 | 0.88 | anti-FGFR3 antibody clone 184.6.58 (antibody, V domains shown) VH: EVQLVESGGGLVQPGGSLRLSCAASGFTFTSTGISWVRQAPGKGLEWVGRIYPTNGSTNYADSVKGRFTISADTSKNTAYLQMNSLRAEDTAVYYCARARTYGIYDLYVDYTEYVMDYWGQGTLV VL: DIQMTQSPSSLSASVGDRVTITCRASQDVDISLAWYQQKPGKAPKLLIYSASSLASGVPSRFSGSGSGTDFTLTISSLQPEDFATYYCQQGAGNPYTFGQGTKVEIKR | 100 |  |
